# From patent publication US20210190798A1, “METHODS OF QUANTIFYING LIF AND USES THEREOF” (MEDIMMUNE LIMITED, priority 2018, published 2021)
# B1: A4: rabbit monoclonal anti-LIF capture antibody, variable regions SEQ ID NOs: 41 and 42 (antibody, V domains shown)
# VH: EQLEESVGDLVKPGASLTLTCTASGFSFSGLYYMCWVRQAPGKGLEWIACIWTGSTDSTYYATWAKGRFTISKTSSTTVTLQMTSLTVADTATYFCARGGGVPGDGYALWGPGTLVTVSS
# VL: GTELVMTQTPASVSEPVGGTVTINCQASEDISSNLVWYQQKSGQPPKLLIYDASMLASGVPSRFKGSGSGTQFTLTISDLECADGATYYCQSYYVASSSYFVNGFGGGTEVV
# Target: LIF (Homo sapiens, UniProt P15018)
# Sequence (P15018 23-202): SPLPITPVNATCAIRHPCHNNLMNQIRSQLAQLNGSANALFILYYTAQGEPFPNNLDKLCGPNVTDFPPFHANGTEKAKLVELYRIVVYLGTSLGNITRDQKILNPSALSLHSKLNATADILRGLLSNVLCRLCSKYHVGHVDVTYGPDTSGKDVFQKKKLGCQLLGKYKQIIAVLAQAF
# Test: Competitive binding assays against LIF (capture antibody screening)
# Experimental: The capture antibody A4 (set forth in SEQ ID NOs: 41 and 42) was determined by screening potential antibodies using competitive binding assays against LIF.
molecule,measurement,value
B1,binding to LIF,high binding
same,interference with binding by therapeutic antibody h5D8 or M017C3,did not interfere
